8 molecules from patent US20250179196A1 (Janssen / Centocor, published 2025) can be followed below.

A word on the Kd: it is the free concentration of one partner at which half of the binding sites on the other are occupied at equilibrium, for simple one-to-one binding. A higher Kd goes with lower affinity. In general, EC50 refers to the concentration giving half of the maximal effect.

Experiment [1] addresses T1, human IL-23R expressed on the cell surface of stably transfected iLite and HEK cell lines (human, UniProt Q5VWK5 24-629).
T1 construct: whole, on cells; Same receptor on two transfected cell lines; the cell line is named under assay; also called human IL-23R iLite cells; human IL-23R HEK cells
T1 sequence (looked up): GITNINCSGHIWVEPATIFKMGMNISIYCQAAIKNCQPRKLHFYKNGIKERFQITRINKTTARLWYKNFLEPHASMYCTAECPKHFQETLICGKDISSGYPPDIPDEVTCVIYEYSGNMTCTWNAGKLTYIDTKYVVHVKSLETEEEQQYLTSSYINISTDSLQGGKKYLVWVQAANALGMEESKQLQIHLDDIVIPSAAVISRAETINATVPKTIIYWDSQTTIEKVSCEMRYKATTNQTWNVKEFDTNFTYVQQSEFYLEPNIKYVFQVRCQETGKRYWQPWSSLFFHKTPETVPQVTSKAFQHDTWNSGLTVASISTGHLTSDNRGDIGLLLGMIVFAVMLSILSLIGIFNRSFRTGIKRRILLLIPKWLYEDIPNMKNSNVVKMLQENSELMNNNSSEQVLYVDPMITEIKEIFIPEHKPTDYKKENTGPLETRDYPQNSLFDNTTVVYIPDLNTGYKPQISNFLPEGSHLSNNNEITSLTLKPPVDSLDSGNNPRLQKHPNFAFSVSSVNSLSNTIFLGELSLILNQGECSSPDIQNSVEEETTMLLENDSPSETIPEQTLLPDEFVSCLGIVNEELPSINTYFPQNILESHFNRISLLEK
Briefly: flow cytometry on human IL-23R HEK cells, Expt D (8-point, 96well); legend: N-No cell binding observed. How it is done:
HEK-IL-23R cell concentration response mAb binding (8-point, 96-well assay). […] HEK-IL-23R and HEK-parental cells (12.5 μL of each, 120000 cells total) were plated in 2× replicate on 96-well V-bottom plates (Corning, Cat #3357) into 37° C. warmed Assay medium containing serially diluted IL-23R mAbs to a final volume of 150 μL. IL-23R mAbs were allowed to bind to cells for 30 minutes, at 37° C. […] Cells were next washed twice in ice-cold stain buffer, then resuspended in a final volume of 30 μL with Sytox Green viability dye (ThermoFisher, Cat #S7020). Plates were kept on ice until run for analysis on the iQue. All washes were performed by centrifugation (800 rcf, 3 minutes) followed by flick decantation to remove supernatants. Cell-binding to HEK-IL-23R cells was measured with FlowJo, by gating for single, viable cells and determining the geometric mean fluorescence intensity (MFI) for the 647 detection antibody. Geometric mean fluorescence intensities were plotted over log mAb concentrations fitted with a dose response curve with variable slope using GraphPad Prism.

Experiment [2] deals with T2, human IL-23R extracellular domain (ECD) protein (human, UniProt Q5VWK5 24-355).
T2 construct: Recombinant ECD; also called hu IL-23R ECD
T2 sequence: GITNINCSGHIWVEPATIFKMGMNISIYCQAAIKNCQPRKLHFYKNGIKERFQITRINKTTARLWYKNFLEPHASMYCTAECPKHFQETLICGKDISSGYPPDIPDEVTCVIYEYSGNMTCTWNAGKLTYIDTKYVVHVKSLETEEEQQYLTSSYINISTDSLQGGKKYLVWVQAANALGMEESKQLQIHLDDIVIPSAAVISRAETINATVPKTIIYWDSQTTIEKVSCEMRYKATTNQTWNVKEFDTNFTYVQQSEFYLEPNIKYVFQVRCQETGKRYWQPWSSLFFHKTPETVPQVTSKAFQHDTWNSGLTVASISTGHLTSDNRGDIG
Briefly: column 'Affinity to hu IL-23R ECD' (summary of SPR data).

In experiment [3] the target is T1, human IL-23R expressed on the cell …. Briefly: flow cytometry on human IL-23R iLite cells, Expt A (1-point). How it is done:
Human IL-23R iLiTe cell single concentration mAb Binding. Anti-IL-23R mouse IgG₂ₐ mAbs derived from phage panning were tested for binding to human IL-23R expressing iLiTe cells, where a PE conjugated anti mouse secondary antibody detected mAbs bound to the receptor on the cells. […] The next day 100,000 cells were added to each well of a 96 well V bottom plate (Costar, Catalog #3357), centrifuged at 450× gravity for 2 minutes, and then supernatants were decanted. […] Antibodies diluted to 3 μg/mL in Stain Buffer (BSA) (BD Pharmagen, Catalog #554657) were added at 100 μL/well and incubated on ice for 50 minutes, then plates were centrifuged and supernatants were decanted. […] Cells were washed by adding 100 μL/well of Stain Buffer followed by centrifugation and decanting of the supernatants. Cells were resuspended in 100 μL/well of Stain Buffer and analyzed on the Becton Dickenson LSR II FACS instrument with HTS module. Data was analyzed using FlowJo software (Treestar) to obtain geometric mean fluorescence intensities.

Experiment [4] shares this target. In words: flow cytometry on human IL-23R iLite cells, Expt B (1-point). The procedure: Human IL-23R iLiTe cell single concentration mAb Binding. Anti-IL-23R mouse IgG₂ₐ mAbs derived from phage panning were tested for binding to human IL-23R expressing iLiTe cells, where a PE conjugated anti mouse secondary antibody detected mAbs bound to the receptor on the cells. […] The next day 100,000 cells were added to each well of a 96 well V bottom plate (Costar, Catalog #3357), centrifuged at 450× gravity for 2 minutes, and then supernatants were decanted. […] Cells were washed by adding 100 μL/well of Stain Buffer followed by centrifugation and decanting of the supernatants. Cells were resuspended in 100 μL/well of Stain Buffer and analyzed on the Becton Dickenson LSR II FACS instrument with HTS module. Data was analyzed using FlowJo software (Treestar) to obtain geometric mean fluorescence intensities.
In general terms: Flow cytometry measures light scatter and fluorescence of single cells or particles in a stream.

The target is the same in experiment [5]. Briefly: flow cytometry on human IL-23R HEK cells, Expt E (11-point, 384well). A digest of the protocol: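 Antibody bound to HEK-IL-23R cells 30 min at 37 °C over 11 concentrations; after washes, Sytox Green added and cells run on iQue. Geometric MFI of 647 detection antibody on single viable cells fitted by variable-slope dose–response.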
For experiment [6] the target is unchanged. In words: flow cytometry on human IL-23R iLite cells, Expt C (12-point), Gate 2. The procedure: (§1) Human IL-23R iLiTe cell concentration response mAb binding. […] The next day 100,000 cells were added to each well of a 96 well V bottom plate (Costar, Catalog #3357), centrifuged at 450× gravity for 2 minutes, and then supernatants were decanted. Antibodies were diluted in Stain Buffer (BSA) (BD Pharmagen, Catalog #554657) and added at 50 μL/well, and mixed. Plates were incubated on ice for 50 minutes, then plates were centrifuged and supernatants were decanted. […] Cells were washed by adding 200 μL/well of Stain Buffer followed by centrifugation and decanting of the supernatants. Cells were resuspended in 100 μL/well of Stain Buffer, transferred in quadruplicate to a 384 well plate (Greiner, Catalog #781281) and analyzed on the Becton Dickenson LSR II FACS instrument with HTS module. Data was analyzed using FlowJo software (Treestar) to obtain geometric mean fluorescence intensities, and geometric mean fluorescence intensities were plotted over log mAb concentrations fitted with a sigmoidal dose response curve with variable slope using GraphPad Prism.

Experiment [7] shares this target. Briefly: flow cytometry on human IL-23R iLite cells, Expt C (12-point), Gate 1 + 2. How it is done:
as §1

B1: I23RB104 (antibody, mouse IgG2a, kappa, V domains shown)
VH: EVKLVESGGGLVKPGGSLKLSCAASGFTFSSYAMSWVRQTPEKRLDWVASISTGGSTYYPDSVKGGFTISRDIARNTLSLQMTSLRSEDTAMYYCARGPHYYGGSYPFAYWGQGTTLTVSS
VL: DIQMTQSPASLSVSVGETVTITCRASENIYSNLAWYQQKQGKSPQLLVYAATNLADGVPSRFSGSGSGTQYSLKINSLQSEDFGSYYCQHFWGTPPTFGSGTKLEIKR
notes: immunization; mouse IgG2a/kappa
In the case of B1, the binding result in experiment [1] is given as “no binding”.

B2: I23RB7 (antibody, mouse IgG2a, kappa, V domains shown)
VH: QIQLVQSGPELKKPGETVKISCKASGYTFTTYGMSWVKQAPGKGLKWMGWINTYSGVPTYADDFKGRFAFSLETSASTAYLQINNLKNEDTATYYCARRDRYGYVAGAFAYWGQGTLVTVSS
VL: QIVLTQSPAIMSASPGEKVTMTCSASSSVSYMYWYQQKPGSSPRLLIYDTSNLASGVPVRFSGSGSGTSYSLTISRMEAEDAATYYCQQWSSYPWTFGGGTKLEIKR
notes: phage display; mouse V, mouse IgG2a/kappa
Regarding B2, in experiment [2], the dissociation constant Kd was 1 nM. For the same molecule, the “MFI @ 20 nM” value in experiment [3] stood at 4320 MFI. In addition, in experiment [4], the “MFI @ 0.7 nM” value amounted to 2230 MFI. Further, in experiment [5], the “MFI (6.4 nM)” value was 172000 MFI. Besides, the results for the concentration giving a half-maximal response (EC50) in experiment [6] and in experiment [7] were 0.1 nM and 0.07 nM, respectively.

B3: I23RB1 (antibody, mouse IgG2a, kappa, V domains shown)
VH: QVQLVQSGAEVKKPGSSVKVSCKASGGTFKNYAISWVRQAPGQGLEWMGWIRPIFGTAYYAQKFQGRVTITADESTSTAYMELSSLRSEDTAVYYCARDSGSRYAGRYAFDYWGQGTLVTVSS
VL: EIVLTQSPATLSLSPGERATLSCRASQSVSSYLAWYQQKPGQAPRLLIYDASNRATGIPARFSGSGSGTDFTLTISSLEPEDFAVYYCQQRSNWPLTFGQGTKVEIKR
notes: phage display; human V, mouse IgG2a/kappa
For the molecule B3, the “MFI @ 20 nM” value in experiment [3] was 5090 MFI. Besides, the “MFI @ 0.7 nM” value in experiment [4] is 2990 MFI. Also, the “MFI (6.4 nM)” value in experiment [5] worked out at 287000 MFI. Also, the EC50 in experiment [6] came to 0.02 nM; in experiment [7], 0.26 nM.

B4: I23RB4 (antibody, mouse IgG2a, kappa, V domains shown)
VH: QVQLVQSGAEVKKPGSSVKVSCKASGGTFKTYAIHWVRQAPGQGLEWMGWIIPIFGTANYAQKFQGRVTITADESTSTAYMELSSLRSEDTAVYYCARDGGYYGSRYYPRSYYFDYWGQGTLVTVSS
VL: EIVLTQSPATLSLSPGERATLSCRASQSVSSYLAWYQQKPGQAPRLLIYDASNRATGIPARFSGSGSGTDFTLTISSLEPEDFAVYYCQQRSNWPLTFGQGTKVEIKR
notes: as for B3
In the case of B4, in experiment [3], the “MFI @ 20 nM” value came out at 4390 MFI. In addition, in experiment [4], the “MFI @ 0.7 nM” value stood at 2990 MFI. In experiment [5], the “MFI (6.4 nM)” value was determined as 225000 MFI. For the same molecule, the 50% effective concentration (EC50) in experiment [6] was 0.03 nM; in experiment [7] it was 0.04 nM.

B5: I23RB3 (antibody, mouse IgG2a, kappa, V domains shown)
VH: QVQLVQSGAEVKKPGSSVKVSCKASGGTFKSYSIHWVRQAPGQGLEWMGGIIPYFGYANYAQKFQGRVTITADESTSTAYMELSSLRSEDTAVYYCARERGYYGSIYYGGGFDYWGQGTLVTVSS
VL: EIVLTQSPATLSLSPGERATLSCRASQSVSSYLAWYQQKPGQAPRLLIYDASNRATGIPARFSGSGSGTDFTLTISSLEPEDFAVYYCQQRSNWPLTFGQGTKVEIKR
notes: as for B3
In the case of B5, the “MFI @ 20 nM” value in experiment [3] was 4320 MFI. The “MFI @ 0.7 nM” value in experiment [4] stood at 1460 MFI. Moreover, the “MFI (6.4 nM)” value in experiment [5] came to 149000 MFI. For the same molecule, the concentration giving a half-maximal response (EC50) in experiment [6] was 0.37 nM; in experiment [7], 0.66 nM.

B6: I23RB2 (antibody, mouse IgG2a, kappa, V domains shown)
VH: QVQLVQSGAEVKKPGSSVKVSCKASGGTFSSYAISWVRQAPGQGLEWMGGIIPIFGTANYAQKFQGRVTITADESTSTAYMELSSLRSEDTAVYYCARDRYRYLGANGFDYWGQGTLVTVSS
VL: EIVLTQSPATLSLSPGERATLSCRASQSVSSYLAWYQQKPGQAPRLLIYDASNRATGIPARFSGSGSGTDFTLTISSLEPEDFAVYYCQQRSNWPLTFGQGTKVEIKR
notes: as for B3
Consider B6, for which the “MFI @ 20 nM” value in experiment [3] amounted to 4110 MFI. Besides, the “MFI @ 0.7 nM” value in experiment [4] was 670 MFI. Also, the EC50 in experiment [6] turned out to be 1.11 nM; in experiment [7], 1.09 nM.

B7: I23RB189 (antibody, mouse IgG2a, kappa, V domains shown)
VH: DVQLQESGPDLVKPSQSLSLTCTVTGYSITSGYNWHWIRQFPGNKLEWMGYIHSSGTTNYSPSLRSRLSITRDTSKNQFFLQLNSVTTEDTATYYCTRQLGLKAMEYWGQGTTLTVSS
VL: DIVLTQSPKSMSMSVGERVTLSCKASENVGTYVSWYQQKPEQSPKLLMYGASNRYTGVPDRFTGSGSATDFTLTISSVQAEDLADYHCGQSYSYPPTFGGGTKLEIKR
notes: as for B1
B7: in experiment [1], the binding result was “no binding”.

B8: I23RB149 (antibody, mouse IgG2a, kappa, V domains shown)
VH: DVQLQESGPDLVKPSQSLSLTCTVTGYSITSGYNWHWIRQFPGNKLEWMGYIHFSDRTNYNPSLKSRISITRDTSKNQFFLQLNSVTSEDTATYYCSRQLGLKALDYWGQGTTLTVSS
VL: DVQMIQSPLSLPVSLGDQASISCRSSQSLVHSNGNTYLHWYLQKPGQSPKLLIYKVSNRFSGVPDRFSGSGSGTDFTLKISRVEAEDLGVYFCSQSTHVPLTFGAGTRLEIKR
notes: as for B1
Consider B8, for which the binding result in experiment [1] is “no binding”.
